Assay results as given in publication PMC7933254.

Target: RhoA (blot label: Myc (RhoA); legend: RhoA-GFP)
Assay: co-immunoprecipitation (IP: Myc (RhoA)) with densitometry
Settings: MN-1 cells, mean ± SEM, parent: est. 1.0, read off a plot

ratio to parent (R237L TRPV4-FLAG alone, no TRPV4-GFP co-expressed (lane 4), n = 5): 0.05
ratio to parent (R237L TRPV4-FLAG co-expressed with WT TRPV4-GFP (lane 5), n = 4): 0.04
Substance: TRPV4-FLAG (wild type), expressed in MN-1 cells (from UniProt Q9HBA0) R237L
